Data from US20220267464A1.
Where two headings read alike, the source gives them in different places.

Columns and labels:
[1] = biological target: human 4-1BB on Jurkat-hu4-1BB-NFκB-luc2 reporter cells (human) (UniProt Q07011); assay: cell-based or functional assay; set-up: AUC of activation curve, Jurkat-hu4-1BB-NFκB-luc2, no CEA+ cells / AUC of activation curve, Jurkat-hu4-1BB-NFκB-luc2 with CHO-k1-cyno CEACAM5 clone 8: unit not given beside the values
[2] = biological target: human CEACAM5 (carcinoembryonic antigen, CEA) on cells (human) (UniProt P06731); assay: cell-based or functional assay
[3] = biological target: cynomolgus monkey CEACAM5 on CHO-k1-cynoCEACAM5 clone 8 cells (cynomolgus monkey); assay: cell-based or functional assay; set-up: AUC of activation curve, Jurkat-hu4-1BB-NFκB-luc2, no CEA+ cells / AUC of activation curve, Jurkat-hu4-1BB-NFκB-luc2 with CHO-k1-cyno CEACAM5 clone 8: unit not given beside the values
[4] = biological target: human CEACAM5 (carcinoembryonic antigen, CEA) on cells (human) (UniProt P06731); assay: cell-based or functional assay; set-up: AUC of activation curve, Jurkat-hu4-1BB-NFκB-luc2, no CEA+ cells / AUC of activation curve, Jurkat-hu4-1BB-NFκB-luc2 with CHO-k1-cyno CEACAM5 clone 8: unit not given beside the values
[5] = biological target: human CEACAM5 (carcinoembryonic antigen, CEA) on cells (human) (UniProt P06731); assay: flow cytometry, CHO-k1-huCEACAM5 clone 11; set-up: unit not given beside the values
[6] = biological target: human CEACAM5 (carcinoembryonic antigen, CEA) on cells (human) (UniProt P06731); assay: flow cytometry, CHO-k1-huCEACAM5 clone 11; set-up: unit not given beside the values; remark: listed apart in the source
[7] = biological target: human CEACAM5 (carcinoembryonic antigen, CEA) on cells (human) (UniProt P06731); assay: flow cytometry, CHO-k1-huCEACAM5 clone 12; set-up: unit not given beside the values
[8] = biological target: human CEACAM5 (carcinoembryonic antigen, CEA) on cells (human) (UniProt P06731); assay: flow cytometry, CHO-k1-huCEACAM5 clone 17; set-up: unit not given beside the values
[9] = biological target: human CEACAM5 (carcinoembryonic antigen, CEA) on cells (human) (UniProt P06731); assay: flow cytometry, CHO-k1-huCEACAM5 clone 12; set-up: unit not given beside the values; remark: listed apart in the source
[10] = biological target: cynomolgus monkey CEACAM5 on CHO-k1-cynoCEACAM5 clone 8 cells (cynomolgus monkey); assay: flow cytometry, CHO-k1-cynoCEACAM5 clone 8; set-up: unit not given beside the values
[11] = biological target: human CEACAM5 (carcinoembryonic antigen, CEA) on cells (human) (UniProt P06731); assay: flow cytometry, CHO-k1-huCEACAM5 clone 13; set-up: unit not given beside the values
[12] = biological target: cynomolgus monkey CEACAM5 on CHO-k1-cynoCEACAM5 clone 8 cells (cynomolgus monkey); assay: flow cytometry, CHO-k1-cynoCEACAM5 clone 8; set-up: unit not given beside the values; remark: listed apart in the source
[13] = biological target: human CEACAM5 (carcinoembryonic antigen, CEA) on cells (human) (UniProt P06731); assay: flow cytometry, MKN45 cells; set-up: unit not given beside the values

Sequence of human CEACAM5 (carcinoembryonic antigen, CEA) on cells (human) (P06731 35-685 E398K limits assumed): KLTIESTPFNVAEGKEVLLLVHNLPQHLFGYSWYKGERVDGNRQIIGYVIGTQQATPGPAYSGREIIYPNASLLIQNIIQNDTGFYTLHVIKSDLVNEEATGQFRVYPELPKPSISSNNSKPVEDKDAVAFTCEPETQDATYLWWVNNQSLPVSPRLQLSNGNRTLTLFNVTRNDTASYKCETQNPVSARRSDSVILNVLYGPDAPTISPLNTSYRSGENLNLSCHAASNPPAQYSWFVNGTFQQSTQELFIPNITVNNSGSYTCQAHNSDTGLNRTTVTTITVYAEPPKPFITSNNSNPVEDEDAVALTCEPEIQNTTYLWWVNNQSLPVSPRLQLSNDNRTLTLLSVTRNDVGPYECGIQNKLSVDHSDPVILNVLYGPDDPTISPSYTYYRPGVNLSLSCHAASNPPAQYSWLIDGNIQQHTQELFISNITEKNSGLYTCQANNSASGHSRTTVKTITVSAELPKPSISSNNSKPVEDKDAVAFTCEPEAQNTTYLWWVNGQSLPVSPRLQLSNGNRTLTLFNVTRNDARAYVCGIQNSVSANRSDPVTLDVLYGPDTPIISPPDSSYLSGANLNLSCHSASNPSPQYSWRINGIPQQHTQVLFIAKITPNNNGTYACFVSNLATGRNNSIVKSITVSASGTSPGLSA
Sequence of human 4-1BB on Jurkat-hu4-1BB-NFκB-luc2 reporter cells (human) (Q07011 24-255 limits assumed): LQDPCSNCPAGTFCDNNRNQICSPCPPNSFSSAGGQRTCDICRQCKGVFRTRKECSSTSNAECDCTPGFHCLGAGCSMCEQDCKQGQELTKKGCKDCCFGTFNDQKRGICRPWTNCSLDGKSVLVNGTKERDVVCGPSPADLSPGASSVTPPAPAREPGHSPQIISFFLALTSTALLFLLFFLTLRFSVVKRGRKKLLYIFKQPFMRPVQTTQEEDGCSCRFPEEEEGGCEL

| Substance | AUC of activation curve, Jurkat-hu4-1BB-NFκB-luc2, no CEA+ cells [1] | EC50, NFκB-luciferase in Jurkat-hu4-1BB-NFκB-luc2 with CHO-k1-human CEACAM5 clone 11 [2] [nM] | EC50, NFκB-luciferase in Jurkat-hu4-1BB-NFκB-luc2 with CHO-k1-human CEACAM5 clone 12 [2] [nM] | AUC of activation curve, Jurkat-hu4-1BB-NFκB-luc2 with CHO-k1-cyno CEACAM5 clone 8 [3] | AUC of activation curve, Jurkat-hu4-1BB-NFκB-luc2 with CHO-k1-human CEACAM5 clone 11 [4] | AUC of activation curve, Jurkat-hu4-1BB-NFκB-luc2 with CHO-k1-human CEACAM5 clone 12 [4] | also measured |
| --- | --- | --- | --- | --- | --- | --- | --- |
| CEA (MEDI-565)-4-1BBL (Fc fusion) | 2270 |  |  |  |  |  |  |
| CEA(sm9b)-4-1BBL single chain (Fc fusion) | 1980 | 0.09 | 0.07 | 2820 | 150000 | 146000 |  |
| DP47-4-1BBL (Fc fusion) | 2930 |  |  | 4710 | 8640 | 6640 | AUC [5]: 1300; AUC [6]: 148; AUC [7]: 140; AUC [8]: 430; AUC [9]: 700; AUC [10]: 11; AUC [11]: 752; AUC [12]: 520 |
| CEA(sm9b)-4-1BBL (Fc fusion) | 2810 | 0.05 | 0.03 | 3970 | 162000 | 164000 |  |
| P1AD5108-002 DP47 huIgG1 PG LALA (Isotype control) (antibody) |  |  |  |  |  |  | AUC [13]: 420 |
